Measured values reported in the supplement of paper PMC9170038.

System: MS2 coat protein
Experiment: apparent KD of MS2 coat protein; designed switch direction (-1 OFF switch, 1 ON switch): -1; higher = weaker reporter binding
Outline: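 Apparent KD, taken as the median over clusters for each design, was obtained by curve-fitting normalised cluster fluorescence. Designed RNA switches had been transcribed on Illumina chips by stalled E. coli RNA polymerase and titrated with SNAP-549-labelled MS2 coat protein, doubling from 0.7 or 1.5 nM to 3 µM.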

[1] = Eterna round: R95, input ligand: microRNA oligo, concentration not stated
[2] = Eterna round: R95, input ligand: FMN 200 uM
[3] = Eterna round: R95, input ligand: none
[4] = input ligand: microRNA oligo, concentration not stated

Row | Sequence | apparent KD of MS2 coat protein [1] | apparent KD of MS2 coat protein (input ligand: FMN 200 uM) | apparent KD of MS2 coat protein (input ligand: none) | other results
1 | AAUCUGUGAGGAUAUGGUGAGUAGUGCCUGAGCGCUGCUCACCAGAAGGCACAUGAGGAUCACCCAUGUAUGAC [Mat - Exclusion 4 - Mod of JL - D2] (puzzle: Exclusion 4) | 0.0277 µM | – | – | –
2 | UCGGCGCGAGGAUAUACGUUUGCUUUUUUUUGUCGUUGCGUACAUGAGGAUCACCCAUGUAGAAGGCGCGCCGC [Apr-15 SS2-23] (puzzle: Exclusion 2) | 0.0168 µM | – | – | –
3 | CGGUCAUGAGGAUAUCGAGGUUAGUACAUGAGGAUCACCCAUGUUAUCCAGGUGUCGGUUCGAGAAGGCAUGUCCG [LRO-Ex5-12] (puzzle: Exclusion 5) | 0.287 µM | – | – | –
4 | AUGGACGCAGGAUAUACAUGAGGAUCACCCAUGUGAGGUUGGUAAGUAGGAAGUGAAGGUAGAAGGGCGAGAGU [JR_Exclu3_Sub098] (puzzle: Exclusion 3) | 0.0842 µM | – | – | apparent KD of MS2 coat protein [2]: 0.209 µM; apparent KD of MS2 coat protein [3]: 0.0768 µM
5 | CUAGCAAUUGUAGGAUAUCGAUGUGUUUCACAUCGAGAAGGACAUGAGGAUCACCCAUGUGAAAGGAUCGUGAGAUCCAGCUAG [JL ENG1 3.75] (Eterna round: R96, puzzle: Exclusion NG 1) | – | 0.0967 µM | 0.0303 µM | apparent KD of MS2 coat protein [4]: 0.0231 µM
6 | GUGGGUCCUCACGGUGCUACAUGAGGAUCACCCAUGUGGAUUGAGGAUAUCGUAACCCGACGGGACGAGAAGGCAGUUUACUGU [Ex NG3 #99] (Eterna round: R96, puzzle: Exclusion NG 3) | – | 0.0662 µM | 0.0272 µM | apparent KD of MS2 coat protein [4]: 0.0148 µM
7 | UCGGCGCGAGGAUAUACGUUUGCUUUUUAGGAUCGUGGCGUACAUGAGGAUCACCCAUGUAGAAGGCGCGCCGC [Apr-15 SS2-28] (puzzle: Exclusion 2) | 0.0124 µM | – | – | –
8 | AGUAACAGAGGAUAUACUGUUUUAUGUGUUUGUUAUUUUGAACAUGAGGAUCACCCAUGUAGAAGGCUGAAUAA [JMF 92] (puzzle: Exclusion 2) | 0.02 µM | – | – | –
9 | UAUAUAUAGUAAGGAUAUGUAUAUGUUUUAUAAACAGAAGGUACUGACAUGAGGAUCACCCAUGUUUUAGUGUGGGCAUGUAGA [JMF's solution 54] (Eterna round: R96, puzzle: Exclusion NG 1) | – | – | – | apparent KD of MS2 coat protein [4]: 0.0445 µM
10 | UUUUUGUCAGGAUAUGCAUGUUUUUUUUUUUUUUUUUUCAUGCAGAAGGGACAUGAGGAUCACCCAUGUAGUUU [Ex4 - 3 - 10] (puzzle: Exclusion 4) | 0.0234 µM | – | – | apparent KD of MS2 coat protein [2]: 0.0343 µM; apparent KD of MS2 coat protein [3]: 0.0379 µM
11 | AAACCUGCCCAUGACCGCAAGCUUUUCGCUUGUCUUACCACAUGAGGAUCACCCAUGUGACAUGGGCUCCUUAUAAA [Usorle] (puzzle: Sensor v3, turn-off variant 2) | 0.0118 µM | – | – | apparent KD of MS2 coat protein [2]: 0.014 µM; apparent KD of MS2 coat protein [3]: 0.0114 µM
12 | GCAGAGCAAGGAUAUACAUGAGGAUCACCCAUGUAAUCUGAAAGGAUUGUAUGGCUCUGUAGAAGGUGCGAAAA [Ederxein] (Eterna round: R97, puzzle: Exclusion 3) | – | 0.0419 µM | 0.0227 µM | –
13 | UUGUGCACGCUGCGAUCCUACAUGAGGAUCACCCAUGUGGUCUGGUGGCGUGGGUCACCGGACUUGGCUCGUCUUGC [salish99_S_TOV1_R5_073] (Eterna round: R97, puzzle: Sensor, turn-off variant 1) | – | 0.0288 µM | 0.0286 µM | –
14 | CCAGCGAGUGUGAGGAUAUGCUGGUCCUUGGAUCAGCAGAAGGCACAUGAGGAUCACCCAUGUGAGGACGUUGG [JL bmx4 3.31] (Eterna round: R96, puzzle: Brourd's mod of Exclusion 4) | – | 0.294 µM | 0.0319 µM | apparent KD of MS2 coat protein [4]: 0.0279 µM
15 | ACAUGAGGAUCACCCAUGUCAGGCGGGUCCACUCCGGCUGUUGAGGAUAUAGUUCGGUAUCCGCGCUAGAAGGUGAGGGCCGGC [Aenatbe mod 22] (Eterna round: R96, puzzle: Exclusion NG 3) | – | 0.016 µM | 0.0182 µM | apparent KD of MS2 coat protein [4]: 0.0153 µM
16 | UUUACAAGCUUUAGAUCCCACAUGAGGAUCACCCAUGUUGCUGCCGUGAGGUAGCUUUUAACUAAUGCUCGUCUUAU [JL TOV1 3.41] (Eterna round: R97, puzzle: Sensor, turn-off variant 1) | – | 0.103 µM | 0.124 µM | –
17 | UCCUCACAUGAGGAUCACCCAUGUCAGGAUAUACAAGAAAAUAACCGGAAAGAACGGAGUAGAAGGGACAUAAG [Xeontiorer] (puzzle: Exclusion 1) | 0.0156 µM | – | – | apparent KD of MS2 coat protein [2]: 0.0274 µM; apparent KD of MS2 coat protein [3]: 0.0155 µM

Row | Sequence | apparent KD of MS2 coat protein [1] | apparent KD of MS2 coat protein (input ligand: FMN 200 uM) | apparent KD of MS2 coat protein (input ligand: none) | other results
18 | AAUAUCGUAGGAUAUUAAUACUCAGACAUGAGGAUCACCCAUGUUUGGUGGGUCGGAGAAUGAGAAGGGCGAUGAA [EX5 #15] (Eterna round: R97, puzzle: Exclusion 5) | – | 0.086 µM | 0.0547 µM | –
19 | GUCCUGGACUAUCACAAGCACAUGAGGAUCACCCAUGUCAUGGGUAGAUUUAUAAAUAAAGAUACUGCUCGUCUUAU [Cac Sensor turn off var1 sub7] (Eterna round: R97, puzzle: Sensor, turn-off variant 1) | – | 0.197 µM | 0.252 µM | –
20 | ACUAGAUGAGGAUAUGCAUGUUUUCAUGUUCUUCUAGAUUAACAUGAGGAUCACCCAUGUAGAAGGCGUCUUAU [Exclusion 2 - 30] (puzzle: Exclusion 2) | 0.0184 µM | – | – | –
21 | AUGGCGUUAGGAUAUACUAUGGGCCUGGACAGUGCACCUCCACAUGAGGAUCACCCAUGUAGAAGGAACUCGAG [Eternabot (L2) Solution 99] (Eterna round: R97, puzzle: Exclusion 2) | – | 0.0269 µM | 0.0208 µM | –
22 | GCAGGCGACUAGGCUCGUCUUAUUUUGAGAAGAUUGAAAACAUGAGGAUCACCCAUGUGUGUGGGAGAGUUGGAGUG [JR_SV3TOV2_Sub012] (puzzle: Sensor v3, turn-off variant 2) | 0.346 µM | – | – | apparent KD of MS2 coat protein [2]: 0.268 µM; apparent KD of MS2 coat protein [3]: 0.475 µM
23 | AAGUACCGUCACGAUAGUGAUGGUACAACUAGCAUGUAAACAUGAGGAUCACCCAUGUCCUCAAUUGCUCGUCUUAU [Sensor 3 - 69] (puzzle: Sensor v3, turn-off variant 2) | 0.829 µM | – | – | apparent KD of MS2 coat protein [2]: 0.74 µM; apparent KD of MS2 coat protein [3]: 0.814 µM
24 | AAGAAUUUGCAGGAUAUCUACCACGAUAGGGAUAGAGAAGGGUAAACAUGAGGAUCACCCAUGUAGUAGGUCCG [Eternabot (L2) Solution 91] (Eterna round: R97, puzzle: Exclusion 6) | – | 0.0613 µM | 0.115 µM | –
25 | GACUGCCGAGGAUAUACAUGAGGAUCACCCAUGUGCUUCAGCAUUUUUUAAUGCAUGGGUAGAAGGCGGUAGUC [LRO-Excl3-13] (puzzle: Exclusion 3) | 0.0296 µM | – | – | –
26 | GUGUAGAUAGGAUAUGCUUAGAGCUUACGAAAGUAGGCUCUACAUGAGGAUCACCCAUGUAGAAGGGUCUACAC [Dot plot directed A v16] (puzzle: Exclusion 2) | 0.0249 µM | – | – | –
27 | CUGGUCCGAGGAUAUAUUAAGUGAAACAUGAGGAUCACCCAUGUUAUUUAAUGGAAAUAAAUAGAAGGCGGACUAG [Mat - Exclusion 5 - JL mod - D55] (puzzle: Exclusion 5) | 0.0337 µM | – | – | apparent KD of MS2 coat protein [2]: 0.0344 µM; apparent KD of MS2 coat protein [3]: 0.0599 µM
28 | CCUUAUUCACAGGAUAUGCUCAUCUAAUGAUGAGCAGAAGGGUGGACAUGAGGAUCACCCAUGUUUAUCAAUGG [Omei Ex6 D5] (Eterna round: R97, puzzle: Exclusion 6) | – | 0.545 µM | 0.749 µM | –
29 | GUUGCUACUGAGGAUAUUAUUUUACCCGACUGAUAAGAAGGCAGUACAUGAGGAUCACCCAUGUGGGUAGCCAG [Polaris15] (Eterna round: R97, puzzle: Exclusion 6) | – | 0.0441 µM | 0.0218 µM | –
30 | UAUAUAUAGUAAGGAUAUGUAUUAAUAUUAUAAACAGAAGGUACUGACAUGAGGAUCACCCAUGUUUUAGUGUGGGCAUGUAGA [JMF's solution 77] (Eterna round: R96, puzzle: Exclusion NG 1) | – | – | – | apparent KD of MS2 coat protein [4]: 0.0668 µM
31 | UCCAUGUCAGGAUAUCCUAGCGCAAAGUUGCCCGCGCUGCUGGAGAAGGGACAUGAGGAUCACCCAUGUCUACA [EX4 C.10] (Eterna round: R97, puzzle: Exclusion 4) | – | 0.0768 µM | 0.0232 µM | –
32 | AAGAAACAUGAGGAUCACCCAUGUGAGGAUAUGAGGAAGAAAAGAAAAGAAAGAAGAUUCAGAAGGCACAAAGG [salish99-ex1_r3_058] (puzzle: Exclusion 1) | 0.0351 µM | – | – | apparent KD of MS2 coat protein [2]: 0.0963 µM; apparent KD of MS2 coat protein [3]: 0.0591 µM
33 | GAUUAUGCGAGCUUUAGGGACAUGAGGAUCACCCAUGUUCGUCUUAUUAGUCUAGAUACGCUGACAUACCUAAAUCU [JMF 96] (puzzle: Sensor v3, turn-off variant 1) | 0.0185 µM | – | – | apparent KD of MS2 coat protein [2]: 0.0145 µM; apparent KD of MS2 coat protein [3]: 0.0158 µM
